For one substance, Kd results are on record in publication PMC7650249.

The Kd is the equilibrium constant for the complex coming apart.

The target in experiment [1] is protein C S12C/R312C mutant, labeled with AF555/AF647 (two-chain zymogen) (human) (UniProt P04070). The experiment can be described thus: other fluorescence titration; single molecule FRET of freely diffusing labeled protein C or APC (150 pM) titrated with thrombin S195A; shift of the peak center of the low FRET population, single-site fit; 20 mM Tris, 145 mM NaCl, 0.02% Tween 20, pH 7.5, 10 mM EDTA, 20 °C.

The target of experiment [2] is activated protein C S12C/R312C mutant, labeled with AF555/AF647 (human) (UniProt P04070). Described as above.

For the substance “thrombin, catalytically inactive mutant S195A (enzyme)”, the dissociation constant Kd in experiment [1] stood at 860 nM; in experiment [2], 1100 nM.
